Consider 1 molecule from doi:10.1101/2021.04.09.439147 (bioRxiv, 2021).

The target in the experiment is T1, SARS-CoV-2 S1 subunits-His tag (SARS-CoV-2, reference assumed, UniProt P0DTC2).
T1 construct: source: bought: Sino Biological
Put plainly: ELISA. To be noted: both partners purified. A general note: ELISA stands for enzyme-linked immunosorbent assay.

B1: FLAG-tagged K-874A (VHH)
VHH: EVQLVESGGGQVETGGSLRLSCQASGSTFSDYVMAWFRQRPGKEREFVATISRNGGTTTYGSSVKGRFTISRDNAKSTVYLQMNSLKPEDTAVYYCYAVGGDGDSWGQGTQVTVSS
notes: also called CoVHH1-FLAG
For the molecule B1, the binding result is listed as “binds”.
